Measured values taken from patent US11492610B2, “Sample multiplexing for single-cell RNA sequencing” (California Institute of Technology, priority 2018, dated 2022).

Test system: mouse neural stem cells (NSCs)
Assay: 96-plex scRNA-seq perturbation experiment (96-sample growth factor screen)
Type: cell-based
Description: Neural stem cells for 96-sample growth factor screen were cultured according to the following protocol after previously described cell culture plate reached ˜80% confluence: Stock solutions (10×) were prepared in Neural Stem Cell Basal Medium for every factor and at every concentration used: EGF+bFGF at 200 ng/mL, 40 ng/mL, 8 ng/mL, 1.6 ng/mL; BMP4 (Peprotech) at 200 ng/mL, 40 ng/mL, 8 ng/mL, 0 ng/mL; Retinoic Acid (Sigma) at 10 μM, 2 μM, 0 μM; Scriptaid (Selleckchem)/Decitabine (Selleckchem) at 1 μM/5 μM, 0.2 μM/1 μM, 0 μM/0 μM; Heparin at 20 μg/mL+Penicillin-Streptomycin at 10%. 20 μL each of EGF/bFGF, BMP4, Retinoic acid or Scriptaid/Decitabine, and Heparin/Penicillin-Streptomycin were added to each well of a poly-L-ornithine and laminin coated 96-well plate for a total of 80 μL.
NSCs previously plated on 100 mm culture plates until ˜80% confluent were dissociated by incubation in 4 mL of ESGRO Complete Accutase (Millipore) for 2 minutes at 37° C. After incubation, the Accutase and NSCs were transferred to a 15 mL conical tube and centrifuged at room temperature for 2.5 minutes at 200×g. Supernatant was removed and the cell pellet was resuspended in 2 mL Neural Stem Cell Basal Medium. Centrifugation and medium replacement were repeated one more time and cell concentration was counted on the Countess II Automated Cell Counter. The cell suspension was then diluted with additional Neural Stem Cell Basal Medium to a concentration of 18.3 cells/μL. From this stock 120 μL was added to each well of the 96-well plate for a total of ˜2,200 cells/well. Supplemented media for every well in the 96-well plate was replaced every other day during the 5-day incubation.
Before NSC dissociation and fixation, 80 μL of ice-cold methanol was added to each well of twelve 8-well PCR strips on an ice block. After 5 days in culture, all media in the 96-well plate were removed and the cells washed three times with 150 μL of Neural Stem Cell Basal Medium. Any remaining media were removed and replaced with 20 μL of Accutase and incubated at 37° C. for 2 minutes with gentle pipetting to help break cell clumps. […]
Cells for the 96-sample perturbation experiment were prepared as described above. […] Sequencing libraries were prepared as described, with sample tag libraries sequenced on two lanes of Illumina MiSeq using MiSeq v3 150 cycle kits (26×98 bp reads), and cDNA libraries pooled and sequenced on Illumina HiSeq 4000 using two HiSeq 3000/4000 SBS 300 cycle kits (2×150 bp reads).
For the 96-sample perturbation experiment, the ScanPy Python package (version 1.0.4) was used to process the filtered genes×cells matrix produced by cellranger. […] The per-cell read counts were regressed out and the data scaled to unit variance. […]

B1: BMP4: bone morphogenic protein 4 (BMP4), Peprotech (protein, UniProt P12644 293-408, looked up)
Bone morphogenetic protein 4: SPKHHSQRARKKNKNCRRHSLYVDFSDVGWNDWIVAPPGYQAFYCHGDCPFPLADHLNSTNHAIVQTLVNSVNSSIPKACCVPTELSAISMLYLDEYDKVVLKNYQEMVVEGCGCR
cell proliferation / phenotype across the perturbation array (Example 2 analysis, FIG. 3E, 5A): high proliferation under low BMP4 conditions | effect on cell populations, PCA of relative cluster abundance × sample matrix (Example 2 analysis, FIG. 5B): graded effect | cell proliferation / phenotype across the perturbation array (Example 5 re-analysis (UMAP), FIG. 24, 27): high proliferation under low BMP4 conditions | effect on cell populations, PCA of relative cluster abundance × sample matrix (Example 5 re-analysis (UMAP), FIG. 24B): graded effect
